Here are results for 4 substances from article PMC7985710.

The target of assay [1] is Human HDL, double-radiolabeled. In words: [125I]-HDL cell association on transfected COS-7 cells. As to conditions: COS-7 cells transiently expressing WT or mutant SR-BI; n = 3 independent transfections; empty vector bar est. 30 % of WT; parent: est. 100; read off a plot.
For assay [2], the target named is R174C-SR-BI (human variant of scavenger receptor class B type I) (human) (UniProt Q8WTV0). Briefly: radioligand binding; [^125I]-HDL binding: transfected COS-7 cells incubated with 10 μg/ml double-radiolabeled human HDL for 1.5 h at 4°C.
Assay [3] has as its target WT scavenger receptor class B type I (human SR-BI) (human) (UniProt Q8WTV0). Described as above.

Take “WT scavenger receptor class B type I (human SR-BI) (from UniProt Q8WTV0-2) R174K”: the percent of parent in assay [1] was 72 % of WT.

Turning to “Human HDL, double-radiolabeled (complex)”, the HDL binding, percent of WT-SR-BI in assay [2] is 31.3%. The substance also registered an HDL binding (raw value) (ng/mg protein) in assay [3] of 22.7.

Consider “WT scavenger receptor class B type I (human SR-BI) (from UniProt Q8WTV0-2) R174D; D185R”, for which the percent of parent in assay [1] was 44 % of WT.

With “WT scavenger receptor class B type I (human SR-BI) (from UniProt Q8WTV0-2) D185R”, the percent of parent in assay [1] is 82 % of WT.
